One test deals with T1, del5.
T1 construct: also called truncated human DLL3 ECD variant with Flag-tag on C-terminus
T1 chain: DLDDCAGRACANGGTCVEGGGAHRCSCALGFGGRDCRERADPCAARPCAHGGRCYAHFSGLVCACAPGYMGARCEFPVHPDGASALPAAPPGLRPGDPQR
As to the kind of experiment: ELISA with the human DLL3 ECD fragment proteins del0 to del6, OD405. On the procedure: (§1) Nunc MaxiSorp 384-well plates (Sigma-Aldrich) were coated with each of the human DLL3 ECD fragment proteins del0 to del6, and blocked with 20% Blocking One (NACALAI TESQUE). Blocking buffer was removed and recombinant anti-DLL3 antibodies were incubated with the immobilized proteins for 1 hour at room temperature and washed with HEPES buffer (0.05% Tween20, HEPES). Monoclonal ANTI-FLAG M2-Peroxidase, Clone M2 (Sigma-Aldrich) was then added and incubated for 1 hour at room temperature and washed. Then, ABTS Microwell Peroxidase Substrate (Kirkegaard & Perry Laboratories) was added and OD405 was analyzed with […]ax 384 (Molecular Devices).
On the technique in general: ELISA stands for enzyme-linked immunosorbent assay.

The next test deals with T2, del3.
T2 construct: also called truncated human DLL3 ECD variant with Flag-tag on C-terminus
T2 chain: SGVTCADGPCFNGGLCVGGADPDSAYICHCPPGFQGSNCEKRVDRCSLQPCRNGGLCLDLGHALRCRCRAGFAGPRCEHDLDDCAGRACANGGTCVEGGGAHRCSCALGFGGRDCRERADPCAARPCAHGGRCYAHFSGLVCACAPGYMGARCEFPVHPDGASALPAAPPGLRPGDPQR
The description is as above. On the procedure: as §1

Another test concerns the target T3, del4.
T3 construct: also called truncated human DLL3 ECD variant with Flag-tag on C-terminus
T3 chain: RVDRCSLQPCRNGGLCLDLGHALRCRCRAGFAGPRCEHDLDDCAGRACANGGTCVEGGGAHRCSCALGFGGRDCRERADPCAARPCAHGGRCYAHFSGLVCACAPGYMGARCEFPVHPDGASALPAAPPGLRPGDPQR
Described as above. On the procedure: as §1

For the next test, the target named is T4, del2.
T4 construct: also called truncated human DLL3 ECD variant with Flag-tag on C-terminus
T4 chain: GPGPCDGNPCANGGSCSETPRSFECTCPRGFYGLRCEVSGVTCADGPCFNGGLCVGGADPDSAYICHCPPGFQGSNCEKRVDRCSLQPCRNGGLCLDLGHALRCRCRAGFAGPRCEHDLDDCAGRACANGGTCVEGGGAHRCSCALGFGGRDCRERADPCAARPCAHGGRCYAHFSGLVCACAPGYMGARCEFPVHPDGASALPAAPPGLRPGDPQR
The description is as above. On the procedure: as §1

The target of a further test is T5, del6.
T5 construct: also called truncated human DLL3 ECD variant with Flag-tag on C-terminus
T5 chain: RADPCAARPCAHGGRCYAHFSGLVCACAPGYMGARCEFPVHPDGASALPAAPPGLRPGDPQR
The test is described as above. On the procedure: as §1

The next test addresses T6, del0.
T6 construct: also called human DLL3 ECD with Flag-tag on C-terminus
T6 chain: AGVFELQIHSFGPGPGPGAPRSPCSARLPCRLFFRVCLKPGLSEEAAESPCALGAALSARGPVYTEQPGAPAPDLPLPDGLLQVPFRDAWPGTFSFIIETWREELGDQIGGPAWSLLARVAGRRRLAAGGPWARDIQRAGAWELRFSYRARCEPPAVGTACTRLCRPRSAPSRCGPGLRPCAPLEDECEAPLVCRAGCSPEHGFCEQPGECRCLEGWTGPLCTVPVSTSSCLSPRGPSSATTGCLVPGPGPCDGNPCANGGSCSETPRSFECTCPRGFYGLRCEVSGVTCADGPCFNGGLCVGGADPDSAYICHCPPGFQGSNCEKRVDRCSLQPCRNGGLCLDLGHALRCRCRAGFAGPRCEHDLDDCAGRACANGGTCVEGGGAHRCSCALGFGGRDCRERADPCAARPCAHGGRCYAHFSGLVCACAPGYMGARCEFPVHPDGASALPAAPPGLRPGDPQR
The test is described as above. On the procedure:
as §1

Test [1] deals with T7, human DLL3 (delta-like protein 3 isoform 1 precursor) expressed on Ba/F3 cells (human, UniProt Q9NYJ7 27-618).
T7 construct: Full-length cDNA stably transfected into mouse Ba/F3 cells; also called human DLL3 expressing Ba/F3
T7 sequence: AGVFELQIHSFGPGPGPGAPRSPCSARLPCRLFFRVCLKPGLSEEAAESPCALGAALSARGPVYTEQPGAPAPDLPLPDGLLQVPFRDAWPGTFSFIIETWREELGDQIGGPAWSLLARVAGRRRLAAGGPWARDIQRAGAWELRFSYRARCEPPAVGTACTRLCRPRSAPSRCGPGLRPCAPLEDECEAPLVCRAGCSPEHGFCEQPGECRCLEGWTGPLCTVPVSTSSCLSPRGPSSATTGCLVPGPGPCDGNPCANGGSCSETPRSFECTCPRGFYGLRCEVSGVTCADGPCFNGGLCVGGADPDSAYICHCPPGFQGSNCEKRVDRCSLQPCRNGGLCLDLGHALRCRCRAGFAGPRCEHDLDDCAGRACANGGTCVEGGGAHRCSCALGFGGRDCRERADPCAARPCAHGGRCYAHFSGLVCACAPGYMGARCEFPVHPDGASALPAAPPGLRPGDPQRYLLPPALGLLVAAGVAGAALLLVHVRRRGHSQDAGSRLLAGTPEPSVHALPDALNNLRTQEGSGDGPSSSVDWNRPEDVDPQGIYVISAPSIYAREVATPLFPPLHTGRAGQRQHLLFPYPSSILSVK
The test can be described thus: cell ELISA, B-cell culture supernatants on immobilized hDLL3/BaF_H3 cells. On the procedure: ELISA screening was conducted to test specificity of antibodies in B-cell culture supernatants. Human DLL3 expressing Ba/F3 (hDLL3/BaF_H3 established in Example 2, 2.5×10⁴ cells) were immobilized onto a Nunc MaxiSorp 384-well plate (Sigma-Aldrich) which was pre-coated with BSA (Sigma-Aldrich) and SUNBRIGHT (registered trademark) OE-080CS as Biocompatible Anchor for cell Membrane (YUKA SANGYO). Immobilized cells were incubated with 20 microliters (micro L) of B-cell culture supernatants for 1 hour. The supernatants were aspirated and the cells were washed with HEPES buffer (0.02 M HEPES, 5 mM KCl, 4 mM NaHCO₃, 138 mM NaCl, 2 mM CaCl₂, 5 mM Glucose, 0.4 mM KH₂PO₄, 0.34 mM Na₂HPO₄° and 0.1% BSA). After washing, goat anti-rabbit IgG polyclonal antibody HRP conjugate (BETHYL, A120-111P) was added. The cells were further incubated on ice for 1 hour and washed. Then, ABTS Microwell Peroxidase Substrate (Kirkegaard & Perry Laboratories) was added and OD405 was analyzed with […]ax 384 (Molecular Devices).

Here are results for one molecule from patent US20240150465A1 (Chugai, published 2024).

B1: DLA0379 (antibody, human IgG1, V domains shown)
VH: QSLEESGGRLVTPGTPLTLTCTASGFSLNTYHMIWVRQAPGKGLEWIGIVDSGGSTYYASWAKGRFTISRTSTTVDLKATSLTTEDTATYFCARGGSWDGFNIWGPGTLVTVSS
VL: DVVMTQTPSSVSAAVGGTVTINCQSSQSVYNSDFLAWYQQKPGQPPKLLIYAASTLASGVPSRFKGSGSGTQFTLTISDLECDDAATYYCQGTYEDVGWFNDFGGGTEVVVK
notes: Rabbit B-cell clone, screened as B-cell culture supernatant
As to B1, the binding result in the test with del5 was “no binding”; with del3, “no binding”; with del4, “no binding”; with del2, “no binding”; with del6, “no binding”; with del0, “binds”. Moreover, the binding result in test [1] is recorded as “binds”.
